Bounds are passed on as bounds.

As usually defined, the IC50 is the midpoint of a concentration-inhibition curve. Read a high IC50 as a need for much substance. A word on the Kd: it is a measure of binding affinity in units of concentration.

Experiment [1] deals with HLA-A*02:01. The experiment in a line: IEDB peptide-MHC binding, purified MHC/competitive/fluorescence; ≥ and ≤ were set here for values at or beyond the usual limits of such assays.
For experiment [2], the target named is HLA-A*24:02. The experiment is described as above.
Experiment [3] addresses HLA-A*30:01. The experiment in a line: IEDB peptide-MHC binding, purified MHC/competitive/radioactivity; filed as Kd, often an IC50 or EC50 that approximates it; ≥ and ≤ were set here for values at or beyond the usual limits of such assays.
Experiment [4] addresses HLA-B*44:02. The description is as above. The note with it: source organism: Dengue virus 2 Jamaica/1409/1983.
Experiment [5] addresses HLA-A*02:06. Described as above. To be noted: source organism: Vaccinia virus WR.
In experiment [6] the target is HLA-A*02:02. The experiment is described as above. The note with it: source organism: Vaccinia virus WR.
In experiment [7] the target is HLA-A*02:03. The experiment is described as above. The note with it: source organism: Vaccinia virus WR.
Experiment [8] concerns the target HLA-A*69:01. The experiment in a line: IEDB peptide-MHC binding, purified MHC/direct/fluorescence; filed as Kd, often an IC50 or EC50 that approximates it; ≥ and ≤ were set here for values at or beyond the usual limits of such assays. The note with it: source organism: Hyphomonas neptunium.
For experiment [9], the target named is HLA-A*02:01. Described as above. The note with it: source organism: Hyphomonas neptunium.
Experiment [10] deals with HLA-A*30:02. The experiment in a line: IEDB peptide-MHC binding, purified MHC/competitive/radioactivity; filed as Kd, often an IC50 or EC50 that approximates it; ≥ and ≤ were set here for values at or beyond the usual limits of such assays.
Experiment [11] has as its target HLA-B*51:01. Described as above. To be noted: source organism: Dengue virus 1 Singapore/S275/1990.
Experiment [12] has as its target HLA-B*53:01. Described as above.
The target in experiment [13] is HLA-B*51:01. The experiment in a line: IEDB peptide-MHC binding, purified MHC/competitive/fluorescence; filed as Kd, often an IC50 or EC50 that approximates it; ≥ and ≤ were set here for values at or beyond the usual limits of such assays.
Experiment [14] deals with HLA-A*24:02. As to the kind of experiment: IEDB peptide-MHC binding, purified MHC/competitive/radioactivity; filed as Kd, often an IC50 or EC50 that approximates it; ≥ and ≤ were set here for values at or beyond the usual limits of such assays.
The target in experiment [15] is HLA-A*23:01. The experiment is described as above.
Experiment [16] concerns the target HLA-A*01:01. Described as above. To be noted: source organism: Dengue virus 3 Martinique/1243/1999.
The target in experiment [17] is HLA-A*26:01. The experiment is described as above.
Experiment [18] deals with HLA-A*68:01. The experiment is described as above. To be noted: source organism: Dengue virus 2 Jamaica/1409/1983.
Experiment [19] addresses HLA-A*33:01. The experiment is described as above. The note with it: source organism: Dengue virus 2 Jamaica/1409/1983.
Experiment [20] addresses HLA-B*35:01. The description is as above. To be noted: source organism: Dengue virus 2 Jamaica/1409/1983.
For experiment [21], the target named is HLA-B*40:01. As to the kind of experiment: IEDB peptide-MHC binding, purified MHC/direct/fluorescence; filed as Kd, often an IC50 or EC50 that approximates it; ≥ and ≤ were set here for values at or beyond the usual limits of such assays. To be noted: source organism: Influenza A virus (A/Netherlands/458/98 (H3N2)).
For experiment [22], the target named is HLA-A*01:01. Described as above. The note with it: source organism: Orthohantavirus hantanense.
[23] abbreviates: source organism: Sudan ebolavirus.
[24] abbreviates: source organism: Zaire ebolavirus.
The mark [25] stands for this setting: source organism: Dengue virus 2 Jamaica/1409/1983.
Where [26] appears, read: source organism: Vaccinia virus WR.
Where [27] appears, read: source organism: Dengue virus 3 Martinique/1243/1999.
[28] abbreviates: source organism: Dengue virus 1 Brazil/97-11/1997.
Setting [29] is: source organism: Dengue virus 4 Philippines/H241/1956.

For AFFLYDRLA, the figures for the IC50 in [1] (setting [23]) and in experiment [2] (setting [23]) were 35800 nM and no less than 151000 nM, respectively.
Turning to AFWETKKNL, the IC50 is no less than 242000 nM in [1] (setting [24]) and 2480 nM in experiment [2] (setting [24]).
Turning to AGVLWDVPSP, the Kd in experiment [3] (setting [25]) is 11900 nM.
Turning to AICSAVPSHW, the Kd in experiment [4] is 181 nM.
For the sequence AIRAGYSIV, the dissociation constant (Kd) came to 1.42 nM in experiment [3] (setting [26]), 8060 nM in experiment [5], 1200 nM in experiment [6] and 0.211 nM in experiment [7].
As to ALTPPFHPY, the Kd was no less than 20000 nM in experiment [8] and 9000 nM in [9].
On to AWNVWEVEDY, for which the dissociation constant Kd in experiment [10] (setting [27]) was no less than 69700 nM.
Still for that read-out and setting: next, AYAQMWSLMY: 169 nM.
Turning to CPDDQRAWNI, the Kd in experiment [11] was 18000 nM; in [12] (source organism: Dengue virus 1 Singapore/S275/1990), 120 nM.
For the sequence CPLVLDFII, the Kd in [13] (source organism: Brucella abortus S19) is 323 nM.
Regarding DQNYVCKHTY, the Kd in experiment [10] (setting [27]) amounted to 8020 nM.
DSFLLMLCL: the IC50 in experiment [2] (setting [24]) was no less than 313000 nM.
On to DYMTSMKRF, for which the Kd in experiment [14] (setting [28]) was determined as 214 nM; in [15] (setting [28]), 791 nM.
With DYQGKTVWF, the results for the equilibrium dissociation constant (Kd) in experiment [14] (setting [29]) and in experiment [15] (setting [29]) were 763 nM and 805 nM, respectively.
Regarding EPETPNMDVI, the Kd in experiment [12] (setting [27]) worked out at 10800 nM.
ETENILTVLL: the Kd was found to be 3840 nM in [16] and 16200 nM in [17] (setting [27]).
In the case of ETFLQSPPI, the values for the IC50 in experiment [1] (setting [23]) and in experiment [2] (setting [23]) were no less than 143000 nM and 13900 nM, respectively.
Turning to EVKSCHWPK, the Kd was found to be 166 nM in experiment [3] (setting [25]), 70.6 nM in experiment [18] and 7.23 nM in experiment [19].
Take FAGPVSQHNY: the figures for the Kd in experiment [10] (setting [25]), in experiment [12] (setting [25]) and in [20] were 11.6 nM, 435 nM and 38.4 nM, respectively.
Sequence FEKEGYSLV displayed a Kd in experiment [21] of 118 nM.
Turning to FPPEIINVI, the Kd in experiment [13] (source organism: Variola virus) was 213 nM.
GIVRQRVIP: in [2] (setting [24]), the IC50 is no less than 151000 nM.
Take GLAWIPYFG: the IC50 in experiment [1] (setting [24]) came to 134 nM; in experiment [2] (setting [24]), 62600 nM.
For the sequence GNRGSTSFK, the Kd in [3] (setting [26]) was 2.04 nM.
GRVNPGTYV: the IC50 in experiment [2] (source organism: Variola virus) is 74.3 nM.
In the case of GVDFQESAD, the IC50 in experiment [2] (setting [24]) is no less than 117000 nM.
For HAFSSLLSG, the equilibrium dissociation constant (Kd) in experiment [3] (setting [26]) was 1110 nM.
For HTAITQVRNL, in experiment [17] (setting [29]), the Kd amounted to 2270 nM.
For HYWTAQEQH, in [2] (setting [23]), the concentration for half-maximal inhibition (IC50) was 51100 nM.
As for IDNNTFVRL, the IC50 is no less than 149000 nM in experiment [1] (setting [23]) and 67900 nM in experiment [2] (setting [23]).
Consider ILPWTKISE, for which the figures for the 50% inhibitory concentration (IC50) in experiment [1] (setting [26]) and in [2] (setting [26]) were no less than 247000 nM and 33100 nM, respectively.
For the sequence IPITAAAWY, the Kd in experiment [10] (setting [25]) is 2.47 nM; in [12] (setting [25]) it was 26.6 nM; in experiment [20], 6.19 nM.
With KDLISYGGGW, the Kd in [4] was 310 nM.
For the sequence KGKRALTPPV, the dissociation constant Kd in [3] (source organism: Dengue virus 4 Dominica/814669/1981) stood at 12.4 nM.
Regarding KQRLTNLEK, the Kd in [3] (setting [26]) is 0.951 nM.
With KSSLEVYIY, the Kd in experiment [22] stood at 158 nM.

These data come from the Immune Epitope Database (IEDB).
